Data reported in the nanobody polyreactivity screen of Harvey et al. (2022).

assay: yeast display, Sf9 membrane polyspecificity reagent, FACS + sequencing; frameworks hold sequencing errors
Outline: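 Nanobodies came from a synthetic yeast display library in Saccharomyces cerevisiae BJ5465, induced with galactose for 36–48 hours and stained for 1 hour at 4 °C with 10% biotinylated, detergent-solubilized Sf9 membrane reagent. Cells were enriched on streptavidin microbeads and then FACS-sorted, with low and high (top ~1%) gates set on anti-HA fluorescence for expression and streptavidin fluorescence for reagent binding. Each polyreactivity label reflects the gate a clone came from. Genes were amplified by colony PCR, sequenced by MiSeq 2 × 250 and filtered by CDR length.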

Sequence | polyreactivity (PSR sort gate)
QVQLVESGGGLVQAGGSLRLSCAASGRTFVFNAMGWYRQAPGKERELVAAISRSGGSTYYADSVKGRFTISRDNAKNTVYLQMNSLKPEDTAVYYCAADKYYLFALYEYGYWGQGTQVTVSS | high polyreactivity
QVQLVESGGGLVQAGGSLRLSCAASGSTFWYYAMGWYRQAPGKEREFVAAITTSAGRTYYADSVKGRFTISRDNAKNSVYLQMNSLKPEDTAVYYCAAEPRQYWEYNYWGQGTQVTVSS | high polyreactivity
QVQLVESGGGLVQAGGSLRLSCAAYGSTFYHKAMGWYRQAPGKERELVARITRGGSTDYADSVKGRFTISRDNAKNTVYLQMNSRKPEDTAVYYCAAAIGHFERFYWGQGTQVTVSS | low polyreactivity
QVQLEDSGGGLVQAGGSLRLSCAASGRIFTRYAMGWYRQAPGKERELVAVITRSGGSTYYADSVKGRFTISRDNAKNTVYLQMNSLKPEDTAVYYCAARYYWSVYADQGDYWGQGTQVTVSS | low polyreactivity
QVQLVESGGGLVQAGGSLRLSCAASGSTFLPNAMGWYRQPPGKERELVAAITNSGGNTYADSVKGRFTISRDNAKNTVYLQMNSLKPEDTAVYYCNARFSPTGWARGNDYWGQGTQVTVSS | low polyreactivity
QVQLVESRRGLVQAGGSLRLSCAASGFTFYIYAMGWYRQAPGKERELVAAIIFRGGSTYYADSVKGRFTISRDNAKNTVYLQMNSLKREDTAVYYCAAVPRTYSGYYYWGHGTQVTVSS | high polyreactivity
QVQLVESGGGLVQAGGSLRLSCAAYGSIFFGNVMGWYRQAPGKARELVAVISWSGGTTYYADSVKGRFTISRDNAKNTVYLQMNSLKPEDTAVYYCNARYLRRGDYWGQGTQVTVSS | low polyreactivity
QVQLVESGGGLVQAGGSLRLSCAASGRIFRYYAMGWYRQAPGKERELVASSTYYADSVKGRFTISRDNAKNTVYLQMNSLKPEDTAVYYCAAVKGTRGWYDYWGQGTQVTVSS | high polyreactivity
QVQLVESGGGLVQAGGSLRLSCAASGITLDVNAMGWYRQAPGKERELVADITWSDDSTYYADSVKGRFTISRDNAKNTVYLQMNSLKPEDTAVYYCAADVSVSFHPRGYDYWGQGTQVTVSS | low polyreactivity
QVQLVESGGGLVQAGGSLRLSCAASGRTFGPYAMGWYRQAPGKERELVAAISRSGGRTYYADSVKGRFSISRDNAKNTVYLQMNSLKPEETAVYYCNALYLSTRSGDYWGQGSQVTVSS | high polyreactivity
QVQLVESGGGLVQAGGSLRFSCAASGRIFTVNAMGWDRQARGKERELVASITGRGTRTYYADSVKGRFTISRDNAKNTVYLQMNSLKPEDTAVYYCAARAVKQYGNSYDYWGQGTQVTVSS | high polyreactivity
KVQLVESGGGLVQAGGSLRLSCAASGLILWYYAMGWAIQAPGKERELVAAISRYGASTYYADSVKGRFTISRDNAKNTDYLQLNSLKPEDTAVYYCATGSSRYRHQRDYLGQGTQVTVSS | high polyreactivity
QVQLVESGGGLVQAGGSLRLSCAASGSTFFSNAMGWYRQAPGKERELVAAISGSGDSTYYADSVKGRFTISRDNAKNTVYLQMNSLKPEDTAVYYCAARLSTAHYYLGDYWGQGTEVTVSS | low polyreactivity
QVQLVESGGGLVQAGGSLRLSCAASGRTFPYYAMGLYRQAPGKERELVATITRGGSTYYADSVKGRFTISRDNAKNTVYLQMNSLKPEDTAVYYCAVDAYYEMDYWGQGTQLTVSS | low polyreactivity
QVHLVESGGGLVQAGGRLRLSCAASGNTFYQYAMGWYRQAPGKERELVAAISSSGGSTYYADTVKGRFTISRDNAKNTVYLQMNSLKPEDTGVYYCATDKWYGYYYWGQGTQVTVSS | low polyreactivity
LVQLVESGGGLVQAGGSLRLSCAASGSIFPPYAMGWYRQAPGKERELVAARSNGGSTNYAYAVKGRFTISRDNPNYTVYLQMNSLIPEDTAVYYCVARQYYLGWFPYWRIFDYWGQGTQVTVSS | high polyreactivity
QVQLVESGGGLVQAGGSLRLSCAAYGRTFRIYAMGWYRQAPGKERELVATITWRAGSTYYADSVKGRFTISRDNAKYTVYLQMNSLKPEDTAVYYCAADVSAYSGGYWLDYWGQGTQVTVSS | high polyreactivity
QLQLVESGGGLVQAGGSLRLSCAASGFTFGVYAKGWYRQAPGKEREFVAAISWRGGSTYYADSVKGRFTISRDNAKITVYLQMNSLKPEDTAVYYCAADVLERGYGHYNYWGQGTQVTVSS | high polyreactivity
QVQLVESGGGLVQAGGSLRLSCAASGRIFGVNAMGWYRQAPGKVRELVAAIRYSGGSTYYADSVKGRFTISRDYAKNTVYLQMNSLKPEDTAVYYCAKARYTYSWSFGYWGQGTQVTVSS | low polyreactivity
QVQLVESGGGLVQAGGSLRLSCAASGSTFYSNAMGWYRQAPGKERELVAGIDTSDGSTNYADSVKGRITISRDNAKNTVYLQMNSLKPEDTAVYYCNTTLRDSRQYVDRAPYTRYDYWGQGTQVTVSS | low polyreactivity
QVQLVESGGGLVQAGGSLRLSCAASGRIFPYNAMGWYIQGPGKERELVAAISGGGSSTYYADSVKGRFTISRDNAKNTVYLQMNSLKPEVTAVYYCAAQAWWDGEYDYWGQGTKVTVSS | high polyreactivity

Sequence | polyreactivity (PSR sort gate)
QVQLVDSGGGLVQEGGSLRISCAASGFTFPRNAMGWYIQAPGKERELVAAINSGGGTNYADSVKGRFTISRDNAKNTVYLQMNSLKPEDTAVYYCAKDHGSFEMDYWGLGTQVTVSS | low polyreactivity
QVQLVESGGGLVQAGGSLRLSCAASGRTFGRYTMGLYRQAPGKERELVAAITYSGGSTYYADSVKGRFTISRDNAKNTVYFQMNSLKPVDTAVYYCADEWGYDWYRYGYWGQGTQVTVSS | low polyreactivity
QVQLVESGGGLVQAGGSLRLSCADSGSIFSKYAMGWYRQAPGKERELVAAISRSGGRTYYADSVKGRFTISRDNAKNTVYLQMNSLKPEDTAVYYCAADRSYYTWFGGDYWGQGTQVTVSS | high polyreactivity
QVQLVESVRGLVQAGGSLPLSCAASGIIISSYAIGWYRQAPGKESEMVADIRSGGSTNYADSVKGRFTISRDNAKNNVYLQMNSLKPEDTAVYYCIADTFQWWDIADVYVIVKYGYWGQGTQVTVSS | low polyreactivity
QVQLVESGGGLVQAGGSLRLSCAASGFIFFVNAMGWYRQAPGKEREFVATITGSGGSTYYADSVKGRFTISRDNAKNTVYLQMNSLKPEDTAVYYCAALGPYLDYGVQYGYWGQGTQVTVSS | low polyreactivity
QVQLVESGGGLVQAGGSLRLSCAPSGRTFYPNVMGWSRQAPGKERELVAAITSGGSTYYADSVKGRFTISRDNAKNTVYLQMNSLKPEDTAVYYCAVAYAGGGSRKYDYWGQGTQVTVSS | low polyreactivity
QVQLVESGGGLVQAGGSLRLSCAASGRIFPVNDMGWYRQAPGKERELVASITYSGGSTYYADSVKGRFTISRDNAKNTVYLQMNSLKPEDTAVYYCAADDGSQYYFDSPHEYDYWGQGTQVTVSS | low polyreactivity
QVQLVESGGGLVQAGGSIRLSCAASGSTSYIKVMGWYRQAPGKEREMVATISSSGGNTYYADSVKGRFTISRDNAKNTVYLQMNSLKPEDTAVYYCAAKVRVWYYRMDSWGQCTQVTVSS | low polyreactivity
QVQLVESGGGLVQAGGSLRVSCAASGYTFLRYAMGWYRQAPGKERELVAAISWSTGSTYYADSVKGRFTISRDNAKNTVYLQMNSLKPEDTAVYYCAAAGRHSGGRFYYWGQGTQVTVSS | high polyreactivity
QVQLVESGGGLVQAGGSLRLSCAASGGIFSVYAMGWYRQPPGKERELVASITVSGGSTSYADSVKGRFTISRDTAKNTVYLQMNSLKPEDTAVYYCNTDFGQAHTLSWYEDMDYWGQGTQVTVSS | low polyreactivity
QVQLVESVGGLVQAGGSLRLSCAASGRTIVSNAMGWYRQAPGKERELVAAITRGSRTYYADSVKGRFTISRDNAKNTVYLQMNSLKPEDTAVYYCNARHVRYPFTGNYWGQGTQVTVSS | high polyreactivity
QVQLVESGGGLVQAGGSLRLSCAASGNTFYTYAMGWYRQAPGKERELVAAITSGGRTYADSVKGRFTISRDNAKNTVYLQMNSLKPEDTEVYYCAAEFPGFYYVYPGDYWGQGTQVTVSS | low polyreactivity
QVQLVESGAGLVQAGVSLRLSCAPSGFTFTGYAMGWYRQSPGKERELVASISKSDGSTYYAESVKGRFTISRDNAKNTVYLQMNSLKPEDTAVFYCAADANTRGSKGRLTHYDYWGQGSQVTVSS | low polyreactivity
QVQLVESGGGLVQGGGSLRLSCAASGSIFSDNAMGWYRQAPGKERELVATITFSGASTYYADSVKGRFTISRDNAKNTVYLKMNSLKPEDTAVYYCAAEEPDVIAQPGFDYWGQGTQVTVSS | low polyreactivity
QVQLVESGGGLVQAGGSLRLSCAASGSTFYYYAMGWYRQAPGKEREFVAAISWGGGSTRYADSVKGRFTISRDNAKNTVYLQMNSLKPEDTAVYYCAARYPHYDYYYWGQGTQVTVSS | high polyreactivity
QVQLVESGGGLVQAGGSLRLSSAASGSTFYYNTMGWSRQAPGKERELVAAISSSGGTTYYADSVKGRFTISRDNAKNTVYLQMNSLKPEDTAVYYCNVATIWYSYARGYGYWGQGTQVTVSS | high polyreactivity
QVQLVESGGGLVQAGGSLRLSCAASGSTYENAMGWYRQAPGKERELVAVISRSGGSTYYADSVKGRFTISRDNAKNTVYLQMNSLKPEDTAVYYCATVYSAWSWVHGYYVAMDYWGQGTQVTVSS | high polyreactivity
QVQLVESCGGIVQAGGSLRLRCAASGLIFVANAMGWYRQAPVKESEMVAAISRYGGITYYADSVKGRFTISRDNAKNTVYLEMNSLKPEDTAVYYCAKNLPSNGHYDYWGQGTQVTVSS | low polyreactivity
QVQLVESGGGLVQAGGSLRLSCAASGRIFVVNAMGWYRQAPGKERELVATITRSGGITYYADSVKGRFTISRDNAKNTVYLQMNSLNPEDTAVYYCNADVLFYTYYTRGRFDFDYWGQGTQVTVSS | low polyreactivity
QVQLVESGGGLVQAGGSLRLSCAASGFTIASNDMGWYRQAPGKERELVAAITKGGGRTYYADSVKGRFTISRDNAKNTVYLQMNSLKPEDTAVYYCAARQLIKYDYWGQGTQVTVSS | low polyreactivity
